According to paper PMC5792450, “PRRT2 Regulates Synaptic Fusion by Directly Modulating SNARE Complex Assembly” (Cell Reports, 2018):

Molecular target: T1, t-SNARE (syntaxin1a/SNAP25) (UniProt P32851 1-288; P60879 1-206)
T1 construct: syntaxin1a; SNAP25; also called t-SNARE complexes; synaptic t-SNAREs
Assay: MST; t-SNARE or assembled SNARE complex titrated in solution, up to ∼150 μM t-SNARE and ∼60 μM SNARE complex; binding not saturated; soluble conditions; Syt1 tested likewise
Conditions: both partners purified

T1 sequence (P32851 whole entry, chain 1 of 2): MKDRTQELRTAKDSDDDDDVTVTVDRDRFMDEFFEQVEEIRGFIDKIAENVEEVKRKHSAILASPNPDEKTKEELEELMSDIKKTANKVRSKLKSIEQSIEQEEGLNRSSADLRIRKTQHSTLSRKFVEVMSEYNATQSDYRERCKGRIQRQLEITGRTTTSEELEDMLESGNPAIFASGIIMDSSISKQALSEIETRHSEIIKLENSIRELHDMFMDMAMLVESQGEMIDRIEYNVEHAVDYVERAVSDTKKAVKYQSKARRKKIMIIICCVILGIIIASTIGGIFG
T1 sequence (P60879 whole entry, chain 2 of 2): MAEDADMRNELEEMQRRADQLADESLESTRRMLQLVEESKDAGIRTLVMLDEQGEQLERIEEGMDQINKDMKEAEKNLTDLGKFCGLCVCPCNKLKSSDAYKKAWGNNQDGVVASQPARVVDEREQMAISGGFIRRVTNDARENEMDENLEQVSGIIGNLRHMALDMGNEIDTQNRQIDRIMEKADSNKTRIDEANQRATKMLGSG

B1: proline-rich transmembrane protein 2 (PRRT2), full-length, wild type (natural protein, human, UniProt Q7Z6L0 1-340, looked up)
chain: MAASSSEISEMKGVEESPKVPGEGPGHSEAETGPPQVLAGVPDQPEAPQPGPNTTAAPVDSGPKAGLAPETTETPAGASETAQATDLSLSPGGESKANCSPEDPCQETVSKPEVSKEATADQGSRLESAAPPEPAPEPAPQPDPRPDSQPTPKPALQPELPTQEDPTPEILSESVGEKQENGAVVPLQAGDGEEGPAPEPHSPPSKKSPPANGAPPRVLQQLVEEDRMRRAHSGHPGSPRGSLSRHPSSQLAGPGVEGGEGTQKPRDYIILAILSCFCPMWPVNIVAFAYAVMSRNSLQQGDVDGAQRLGRVAKLLSIVALVGGVLIIIASCVINLGVYK
notes: PRRT2, human, full length, cloned into pGEX6p-1; In the fusion, docking and FRET assays it was reconstituted into liposomes; also called purified PRRT2; recombinant PRRT2; source: E. coli Rosetta2(DE3), purified (glutathione agarose, cleaved off the resin with PreScission Protease)
Which Kd does the source give for B1 here?
The Kd was ≥ 50 µM.
